Reference: patent US20250250330A1 (REVOPSIS THERAPEUTICS, published 2025)

How the values were obtained:
[1] = molecular target: T1, rdANG-2 (canine/dog; Creative Biolab_Vang-3062Lsx) (Canine/Dog, UniProt A0A8J8 19-495, limits assumed); test: ELISA on coated dog ANG-2
T1 construct: also called Dog ANG-2
T1 sequence (looked up): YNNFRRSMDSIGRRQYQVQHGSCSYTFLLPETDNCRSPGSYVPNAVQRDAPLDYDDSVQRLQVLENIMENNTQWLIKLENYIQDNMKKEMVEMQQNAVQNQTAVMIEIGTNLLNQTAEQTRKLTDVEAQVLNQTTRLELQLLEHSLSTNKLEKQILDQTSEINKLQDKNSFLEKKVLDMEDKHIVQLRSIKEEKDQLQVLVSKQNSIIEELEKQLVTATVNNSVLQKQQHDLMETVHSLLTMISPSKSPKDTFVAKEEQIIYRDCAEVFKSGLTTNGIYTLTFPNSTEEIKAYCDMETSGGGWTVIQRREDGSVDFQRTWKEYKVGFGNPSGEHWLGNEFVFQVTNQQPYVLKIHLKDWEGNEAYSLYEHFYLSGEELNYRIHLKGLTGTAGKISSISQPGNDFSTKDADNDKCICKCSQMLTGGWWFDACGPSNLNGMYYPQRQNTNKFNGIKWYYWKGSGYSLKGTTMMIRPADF

[2] = molecular target: T2, rpVEGF164 (porcine/pig; AssayGenie_KPRT0149) (Porcine/Pig, UniProt P49151 27-190); test: ELISA on coated pig VEGF-A
T2 construct: Bought protein; also called Pig VEGF-A
T2 sequence (looked up): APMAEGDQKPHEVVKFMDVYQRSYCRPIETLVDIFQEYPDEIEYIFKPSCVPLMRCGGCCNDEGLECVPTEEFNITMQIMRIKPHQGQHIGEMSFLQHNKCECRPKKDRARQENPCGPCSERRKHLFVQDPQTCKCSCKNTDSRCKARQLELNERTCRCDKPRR

[3] = molecular target: T3, His-tagged recombinant human ANG-2 (AcroBiosystems, Cat #AN2-H52H4) (human, UniProt O15123 275-496); test: ELISA on coated human ANG-2
T3 construct: also called rhANG-2; rhANG-2-His; not shown: His tag
T3 sequence (looked up): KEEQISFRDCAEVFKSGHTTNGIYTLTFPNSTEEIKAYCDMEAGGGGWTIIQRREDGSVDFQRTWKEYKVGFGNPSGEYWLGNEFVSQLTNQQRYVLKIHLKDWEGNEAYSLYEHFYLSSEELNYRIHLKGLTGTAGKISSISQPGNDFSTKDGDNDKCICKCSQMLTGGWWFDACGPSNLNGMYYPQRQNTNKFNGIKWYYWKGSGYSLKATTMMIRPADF

[4] = molecular target: T4, rrVEGF165 (rabbit; Kingfisher Biotech_RP1025U-025) (Rabbit, UniProt P49151 27-190 (pig entry)); test: ELISA on coated rabbit VEGF-A
T4 construct: Bought protein; also called Rabbit VEGF-A
T4 chain: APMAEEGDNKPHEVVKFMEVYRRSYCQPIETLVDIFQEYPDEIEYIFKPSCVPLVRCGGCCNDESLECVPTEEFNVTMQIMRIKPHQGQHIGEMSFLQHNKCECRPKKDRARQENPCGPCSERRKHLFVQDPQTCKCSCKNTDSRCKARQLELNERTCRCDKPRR

[5] = molecular target: T5, Recombinant human VEGF165 (Peprotech, Cat #100-20) (human, UniProt P15692-4 27-191); test: ELISA; rhVEGF165 coated, anti-human IgG Fc-HRP detection
T5 construct: Bought protein; also called rhVEGF165; rh VEGF165
Protocol: VEGF₁₆₅ was used to coat Corning 9017 medium binding plates. […] Donkey anti-human IgG Fcγ-HRP (Jackson ImmunoResearch Laboratories, Cat #709-035-098) was used for detection and visualized by TMB substrate. OD450 nm readings were measured by Victor 3 with PerkinElmer 1420 Multilabel Counter.

[6] = molecular target: T6, Recombinant human ANG-2 (R&D Systems, Cat #623-AN-025/CF) (human, UniProt O15123 19-496, limits assumed); test: ELISA on rhANG-2 by an independent team; average of three values
T6 construct: also called rhANG-2
T6 sequence (looked up): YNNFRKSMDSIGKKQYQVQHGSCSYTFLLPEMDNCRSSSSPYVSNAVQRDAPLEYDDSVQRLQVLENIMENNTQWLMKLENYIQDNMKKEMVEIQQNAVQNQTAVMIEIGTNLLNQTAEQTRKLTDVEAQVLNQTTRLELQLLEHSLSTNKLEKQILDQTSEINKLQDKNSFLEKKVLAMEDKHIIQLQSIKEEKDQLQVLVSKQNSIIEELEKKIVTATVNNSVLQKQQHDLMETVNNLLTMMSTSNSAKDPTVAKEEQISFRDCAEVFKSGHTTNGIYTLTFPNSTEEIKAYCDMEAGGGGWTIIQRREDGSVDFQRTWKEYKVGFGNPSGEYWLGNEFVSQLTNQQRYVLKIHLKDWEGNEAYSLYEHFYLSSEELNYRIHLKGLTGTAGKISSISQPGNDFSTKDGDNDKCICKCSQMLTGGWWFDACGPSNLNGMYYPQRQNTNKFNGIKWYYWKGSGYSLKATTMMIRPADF

[7] = molecular target: T5, Recombinant human VEGF165 (Peprotech, …); test: ELISA; rhVEGF165 coated at 1 ug/mL, anti-human IgG Fc-HRP detection (RO-101_Sample 1)
Protocol: Donkey anti-human IgG Fcγ-HRP (Jackson ImmunoResearch Laboratories, Cat #709-035-098) was used for detection and visualized by TMB substrate. OD450 nm readings were measured by Victor 3 (PerkinElmer 1420 Multilabel Counter).

[8] = molecular target: T3, His-tagged recombinant human ANG-2 …; test: ELISA on rhANG-2; biotinylated anti-VpreB antibody and streptavidin-HRP detection; SgG format; anti-VpreB detection
Protocol: SgG1 was diluted in blocking buffer at a starting concentration of 10 nM. Sab and scSv were diluted in blocking buffer at a starting concentration of 100 nM. They were then 1:3 serial diluted.

T5 sequence (P15692 other isoform, or with tags, fused parts or gaps limits assumed): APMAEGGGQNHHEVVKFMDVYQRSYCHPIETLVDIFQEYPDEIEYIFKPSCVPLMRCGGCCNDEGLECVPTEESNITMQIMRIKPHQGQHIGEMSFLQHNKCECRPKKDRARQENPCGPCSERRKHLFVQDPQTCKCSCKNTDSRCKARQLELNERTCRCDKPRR

- EC50 [1]: 0.0135 nM
- EC50 [2]: 0.0198 nM
- EC50 [3]: 0.007 nM
- EC50 [4]: 0.0334 nM
- EC50 [5]: 0.0231 nM
- average EC50 [6]: 0.0491 nM
- EC50 [7]: 0.0135 nM
- EC50 [8]: 0.0257 nM
B1: RO-101 VEGF/ANG-2 bispecific surrobody (bispecific antibody, human IgG1, L234A L235A)
heavy 1: not shown
heavy 2: EVQLVESGGGLVKPGGSLRLSCAASGFTFSSYGMHWVRQAPGKGLEWVAGISADSGDKNYADSVKGRFTISRDNAKNSLYLQMNSLRAEDTAVYYCAKEFISWIYTFDYLDYWGQGTLVTVSSASTKGPSVFPLAPSSKSTSGGTAALGCLVKDYFPEPVTVSWNSGALTSGVHTFPAVLQSSGLYSLSSVVTVPSSSLGTQTYICNVNHKPSNTKVDKKVEPKSCDKTHTCPPCPAPEAAGGPSVFLFPPKPKDTLMISRTPEVTCVVVDVSHEDPEVKFNWYVDGVEVHNAKTKPREEQYNSTYRVVSVLTVLHQDWLNGKEYKCKVSNKALPAPIEKTISKAKGQPREPQVCTLPPSRDELTKNQVSLSCAVKGFYPSDIAVEWESNGQPENNYKTTPPVLDSDGSFFLVSKLTVDKSRWQQGNVFSCSVMHEALHNHYTQKSLSLSPG
light: QPVLHQPPAMSSALGTTIRLTCTLRNDHDIGVYSVYWYQQRPGHPPRFLLRYFSQSDKSQGPQVPPRFSGSKDVARNRGYLSISELQPEDEAMYYCAMGARSSVTHVFGSGTQLTVLSQPKATPSVTLFPPSSEELQANKATLVCLMNDFYPGILTVTWKADGTPITQGVEMTTPSKQSNNKYAASSYLSLTPEQWRSRRSYSCQVMHEGSTVEKTVAPAECS
notes: Format SgG1; also called Sample 1
